Source: doi:10.1101/2024.07.23.604836

Biological target: T1, TLR7-Fc (toll-like receptor 7 ectodomain fused to human Fc) (UniProt Q9NYK1 27-839)
T1 sequence: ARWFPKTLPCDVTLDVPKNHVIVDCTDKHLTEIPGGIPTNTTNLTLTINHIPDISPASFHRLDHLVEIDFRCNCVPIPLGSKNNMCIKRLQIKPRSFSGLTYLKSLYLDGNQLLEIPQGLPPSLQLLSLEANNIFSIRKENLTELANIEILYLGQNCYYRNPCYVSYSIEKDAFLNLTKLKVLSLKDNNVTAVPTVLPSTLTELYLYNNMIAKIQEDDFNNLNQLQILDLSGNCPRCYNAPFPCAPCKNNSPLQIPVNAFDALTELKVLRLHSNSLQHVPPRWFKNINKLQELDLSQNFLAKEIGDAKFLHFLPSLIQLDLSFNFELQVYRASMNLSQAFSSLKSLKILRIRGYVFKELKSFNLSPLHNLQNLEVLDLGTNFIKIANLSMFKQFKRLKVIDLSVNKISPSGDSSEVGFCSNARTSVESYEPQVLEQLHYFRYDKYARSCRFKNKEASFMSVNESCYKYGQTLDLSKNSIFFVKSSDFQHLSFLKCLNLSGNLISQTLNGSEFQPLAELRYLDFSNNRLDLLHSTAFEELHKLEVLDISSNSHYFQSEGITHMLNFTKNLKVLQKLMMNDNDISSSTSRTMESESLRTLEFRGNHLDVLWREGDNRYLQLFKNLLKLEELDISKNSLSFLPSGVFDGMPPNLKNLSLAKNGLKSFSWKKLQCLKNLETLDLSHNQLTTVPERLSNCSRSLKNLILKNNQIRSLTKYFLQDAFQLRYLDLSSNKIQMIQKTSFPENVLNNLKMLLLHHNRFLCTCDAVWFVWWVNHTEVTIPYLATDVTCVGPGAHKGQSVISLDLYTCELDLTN
Test: competition

Q: Does GUCUUCAAAACUAGGUCGUUUUAGA (ssRNA, 5' phosphate; 3' biotin) [competitor ssRNA] bind?
A: binds
